Data reported in patent US8030043B2, “β-galactoside-α2,3-sialyltransferase, a gene encoding thereof, and a method for producing thereof” (Japan Tobacco Inc., priority 2005, dated 2011).

Tests used:
[1] = Confirmation of α2,3 sialyltransferase activity of E. coli-expressed enzyme with pyridylaminated lactose, HPLC; type: biochemical; conditions: pyridylaminated lactose 2.0 μM, CMP-sialic acid 5.7 μM, pH 6.0, 25° C., 6 hours
Experimental: Using the enzyme obtained in Example 2, the enzymatic reaction was carried out using a pyridylaminated sugar chain as a glycosyl acceptor substrate. The pyridylaminated sugar chain used for analysis was pyridylaminated lactose (Galβ1-4Glc-PA, Takara Bio Inc., Japan). The glycosyl acceptor substrate, CMP-NeuAc and the enzyme were dissolved at 2.0 μM, 5.7 μM and 20 mU/ml, respectively, in 25 μl of 20 mM cacodylate buffer (pH 6.0), and then reacted at 25° C. for 3 hours. After the reaction, the reaction solution was treated at 100° C. for 2 minutes to inactivate the enzyme, followed by HPLC to analyze the reaction product.
The HPLC system used was Shimadzu LC10A (Shimadzu Corporation, Japan) and the analytical column used was Takara PALPAK Type R (Takara Bio Inc., Japan). The column which had been equilibrated with 100 mM acetate-triethylamine (pH 5.0) containing 0.15% N-butanol was injected with the reaction solution diluted with Eluent A (100 mM acetate-triethylamine, pH 5.0). For elution of the pyridylaminated sugar chain, Eluent A (100 mM acetate-triethylamine, pH 5.0) and Eluent B (100 mM acetate-triethylamine containing 0.5% n-butanol, pH 5.0) were used to successively elute the pyridylaminated sugar chain with a linear gradient of 30% to 100% Eluent B (0 to 35 minutes) and then 100% Eluent B (35 to 50 minutes). The analysis was performed under the following conditions: flow rate: 1 ml/min, column temperature: 40° C., detection: fluorescence (Ex: 320 nm, Em: 400 nm).
As in the case of Example 3, pyridylaminated lactose (Galβ1-4Glc-PA, PA-Sugar Chain 026, Takara Bio Inc., Japan) was used as a glycosyl acceptor to carry out the enzymatic reaction. After the reaction, the reaction solution was heated at 95° C. for 5 minutes to inactivate the enzyme, followed by HPLC analysis. It should be noted that the enzymatic reaction was accomplished at 25° C. for 6 hours using pyridylaminated lactose and CMP-sialic acid dissolved at 2.0 μM and 5.7 μM, respectively, in 25 μl of 20 mM cacodylate buffer (pH 6.0) (Reaction 1). On the other hand, a control experiment (Reaction 2) was carried out using a reaction solution free from CMP-sialic acid. Further, to clarify the retention time of standards, the crude enzyme solution was inactivated by thermal treatment (95° C., 5 minutes) and tested in the presence of pyridylaminated lactose and pyridylaminated α2,3-sialyllactose (pyridylaminated 3′-sialyllactose) (Neu5Acα2-3Galβ1-4Glc-PA, PA-Sugar Chain 029, Takara Bio Inc., Japan).

[2] = Optimum pH for enzyme activity; type: biochemical; conditions: 25° C.; acetate, cacodylate, phosphate, TAPS, CHES, CAPS buffers pH 4.0-11.0
Experimental: Purified enzymes were prepared to examine the optimum pH and temperature for β-galactoside-α2,3-sialyltransferase produced by the strain JT-ISH-467 as well as recombinant β-galactoside-α2,3-sialyltransferases produced by the third clone of ISH467-N2C0, the first clone of ISH224-N1C0 and the first clone of FAJ-N1C0.
Acetate buffer (pH 4.0, pH 4.5 and pH 5.0), cacodylate buffer (pH 5.0, pH 5.5, pH 6.0, pH 6.5 and pH 7.0), phosphate buffer (pH 7.0, pH 7.5 and pH 8.0), TAPS buffer (pH 8.0, pH 8.5 and pH 9.0), CHES buffer (pH 9.0, pH 9.5 and pH 10.0) and CAPS buffer (pH 10.0, pH 10.5 and pH 11.0) were prepared and used for enzyme activity measurement at 25° C. at various pH values.
As a result, as shown in FIGS. 3-1 and 3-2, the enzyme activity was maximum at pH 5.0 for β-galactoside-α2,3-sialyltransferase produced by the strain JT-ISH-467, at pH 5.5 for the third clone of ISH467-N2C0, at pH 5.0 for the first clone of ISH224-N1C0, and at pH 5.5 for the first clone of FAJ-N1C0. […] It should be noted that enzyme activity at each pH was expressed as relative activity, assuming that the enzyme activity at pH where it reached a maximum was set to 100.

B1: FAJ-N1C0 first clone: JT-FAJ-16 sialyltransferase lacking signal peptide region, nucleotides 67 to 1209 of SEQ ID NO: 30 (protein, listed as Vibrio sp.)
chain: MKNIITKRMLIILSSLFTIIGCNNDNSTTTNNNAIEIYVDRATLPTIQQMTKIVSQKTSNKKLISWSRYPITDKSLLKKINAEFFKEQFELTESLKNIILSENIDNLIIHGNTLWSIDVVDIIKEVNLLGKNIPIELHFYDDGSAEYVRIYEFSKLPESEQKYKTSLSKNNIKFSIDGTDSFKNTIENIYGFSQLYPTTYHMLRADIFDTTLKINPLRELLSNNIKQMKWDYFKDFNYKQKDIFYSLTNFNPKEIQEDFNKNSNKNFIFIGSNSATATAEEQINIISEAKKENSSIITNSISDYDLFFKGHPSATFNEQIINAHDMIEINNKIPFEALIMTGILPDAVGGMGSSVFFSIPKEVKNKFVFYKSGTDIENNSLIQVMLKLNLINRDNIKLISDI
modifications: CDS (1)..(1209) /gene=“FAJ16-23ST” /product=“Beta-galactoside- alpha 2,3-sialyltransferase”
For B1, the “α2,3 sialyltransferase activity (formation of pyridylaminated α2,3-sialyllactose)” value (“α2,3 sialyltransferase activity” for short) [1] was “a peak of pyridylaminated α2,3-sialyllactose (pyridylaminated 3′-sialyllactose) was detected” and the “pH at which the enzyme activity was maximum (optimum pH)” value (“pH” below) [2] was 5.5.

B2: ISH467-N2C0 third clone: JT-ISH-467 sialyltransferase lacking signal peptide region, nucleotides 73 to 1230 of SEQ ID NO: 1, no mutation (protein, listed as Photobacterium phosphoreum)
chain: MFVFCKKIFFLIFISLMILGGCNSDSKHNNSDGNITKNKTIEVYVDRATLPTIQQMTQIINENSNNKKLISWSRYPINDETLLESINGSFFKNRPELIKSLDSMILTNEIKKVIINGNTLWAVDVVNIIKSIEALGKKTEIELNFYDDGSAEYVRLYDFSRLPESEQEYKISLSKDNIQSSINGTQPFDNSIENIYGFSQLYPTTYHMLRADIFETNLPLTSLKRVISNNIKQMKWDYFTTFNSQQKNKFYNFTGFNPEKIKEQYKASPHENFIFIGTNSGTATAEQQIDILTEAKKPDSPIITNSIQGLDLFFKGHPSATYNQQIIDAHNMIEIYNKIPFEALIMTDALPDAVGGMGSSVFFSLPNTVENKFIFYKSDTDIENNALIQVMIELNIVNRNDVKLISDLQ
modifications: CDS (1)..(1230) /gene=“467-23ST” /product=“Beta-galactoside- alpha 2,3-sialyltransferase”
For B2, the “α2,3 sialyltransferase activity” value [1] was “found to have α2,3 sialyltransferase activity” and the “pH” value [2] was 5.5.

B3: ISH224-N1C0 first clone: JT-ISH-224 sialyltransferase lacking signal peptide region, nucleotides 73 to 1230 of SEQ ID NO: 28 (protein, listed as Photobacterium sp.)
chain: MLVFCKKMFFSVFISLMILGGCNSDSNHNNSDGNITKNKTIEVYVDRATLPTIQQMTQIINENSNNKKLISWSRYPINDEELLESINGSFFKNNSELIKSLDSMILTNDIKKVIINGNTLWAADVVNIIKSIEAFGKKTEIELNFYDDGSAEYVRLYDFSKLPESEQEYKISLSKDNILSSINGTQPFENVVENIYGFSQLYPTTYHMLRADIFETNLPLRSLKGVLSNNIKQMKWDYFKTFNSQQKDKFYNFTGFNPDEIMEQYKASPNKNFIFVGTNSGTATAEQQIDILTEAKNPNSPIITKSIQGFDLFFKGHPSATYNKQIIDAHNMIEIYNKIPFEALIMTDALPDAVGGMGSSVFFSLPNTVENKFIFYKSDTDIENNALIQVMIELNIVNRNDVKLISDLQ
modifications: CDS (1)..(1230) /gene=“224-23ST” /product=“Beta-galactoside-alpha-2,3-sialyltransferase”
For B3, the “α2,3 sialyltransferase activity” value [1] was “a peak of pyridylaminated α2,3-sialyllactose (pyridylaminated 3′-sialyllactose) was detected” and the “pH” value [2] was 5.0.
